Assay results reported in patent US20080003199A1.

Biological target: recombinant mature rat IL-33 with N-terminal His-tag (rat) (UniProt Q66H70)
Test: cell-based or functional assay

Chain of recombinant mature rat IL-33 with N-terminal His-tag (rat) (Q66H70 109-264): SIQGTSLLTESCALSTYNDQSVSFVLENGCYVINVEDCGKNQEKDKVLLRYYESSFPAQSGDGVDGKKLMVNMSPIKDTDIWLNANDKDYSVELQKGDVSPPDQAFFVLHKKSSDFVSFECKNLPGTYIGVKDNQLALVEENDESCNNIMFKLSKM

- NF-κB promoter activity (luciferase reporter, % increase) in neonatal rat cardiomyocytes: 42%
Substance: mouse soluble ST2 (R&D) (from UniProt P14719 27-337)
